US20200247894A1 (Regeneron, published 2020)

T1: Rat IL2Rγ extracellular domain expressed with a C-terminal myc-myc-hexahistidine tag (rat)
T1 construct: whole entry is the tagged construct; also called rIL-2Rg-MMH; rat IL-2Rg-MMH
T1 chain: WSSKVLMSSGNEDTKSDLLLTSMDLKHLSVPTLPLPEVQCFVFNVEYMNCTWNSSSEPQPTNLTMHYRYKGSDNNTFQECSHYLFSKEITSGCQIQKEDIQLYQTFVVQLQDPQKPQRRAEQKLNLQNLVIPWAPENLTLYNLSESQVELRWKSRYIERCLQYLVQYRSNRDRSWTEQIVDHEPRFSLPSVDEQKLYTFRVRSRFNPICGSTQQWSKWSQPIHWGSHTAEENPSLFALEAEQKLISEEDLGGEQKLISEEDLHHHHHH

T2: Mouse IL2Rγ extracellular domain expressed with a C-terminal myc-myc-hexahistidine tag (mouse)
T2 construct: whole entry is the tagged construct; also called mIL-2Rg-MMH
T2 chain: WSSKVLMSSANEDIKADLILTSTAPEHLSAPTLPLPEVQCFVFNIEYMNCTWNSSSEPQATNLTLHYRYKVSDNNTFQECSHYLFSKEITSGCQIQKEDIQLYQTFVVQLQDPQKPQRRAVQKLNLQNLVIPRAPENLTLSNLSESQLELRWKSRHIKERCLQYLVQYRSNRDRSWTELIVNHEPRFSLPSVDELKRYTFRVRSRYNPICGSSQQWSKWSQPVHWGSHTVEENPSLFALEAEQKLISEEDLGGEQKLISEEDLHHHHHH

T3: Macaca fascicularis IL2Rγ extracellular domain expressed with a C-terminal myc-myc-hexahistidine tag (Macaca fascicularis)
T3 construct: whole entry is the tagged construct; also called mfIL-2Rg-MMH
T3 chain: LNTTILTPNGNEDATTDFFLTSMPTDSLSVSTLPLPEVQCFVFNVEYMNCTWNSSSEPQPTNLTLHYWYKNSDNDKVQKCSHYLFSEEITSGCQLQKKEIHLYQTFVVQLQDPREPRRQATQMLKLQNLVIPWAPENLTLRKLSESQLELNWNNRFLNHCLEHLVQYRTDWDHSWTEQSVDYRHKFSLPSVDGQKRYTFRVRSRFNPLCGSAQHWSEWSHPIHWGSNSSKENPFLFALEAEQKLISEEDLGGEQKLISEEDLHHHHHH


Key:
[1] = molecular target: T1, Rat IL2Rγ extracellular domain …; test: SPR Biacore 4000, anti-hFc-captured mAb, 37 C
Description: (§1) Equilibrium dissociation constants (KD values) for IL-2Rγ binding to purified anti-IL2Rγ monoclonal antibodies were determined using a Biacore 4000 instrument equipped with a real-time surface plasmon resonance biosensor. All binding studies were performed in 10 mM HEPES, 150 mM NaCl, 3 mM EDTA, and 0.05% v/v Surfactant Tween-20, pH 7.4 (HBS-ET) running buffer at 25° C. and 37° C. The Biacore sensor surface was first derivatized by amine coupling with a monoclonal mouse anti-human Fc antibody (GE, # BR-1008-39) to capture anti-IL2Rγ monoclonal antibodies.
(§2) The dissociation of monoclonal antibody bound IL2Rγ reagents were monitored for 8-10 minutes in HBS-ET running buffer. Kinetic association (kₐ) and dissociation (kd) rate constants were determined by fitting the real-time sensorgrams to a 1:1 binding model using Scrubber 2.0c curve fitting software. Binding dissociation equilibrium constants (KD) and dissociative half-lives (t_{1/2}) were calculated from the kinetic rate constants as: […]

[2] = molecular target: T2, Mouse IL2Rγ extracellular domain …; test: SPR Biacore 4000, anti-hFc-captured mAb, 37 C
Description: as §1, §2

[3] = molecular target: T3, Macaca fascicularis IL2Rγ extracellular …; test: SPR Biacore 4000, anti-hFc-captured mAb, 37 C
Description: as §1, §2

[4] = molecular target: T1, Rat IL2Rγ extracellular domain …; test: SPR Biacore 4000, anti-hFc-captured mAb, 25 C
Description: as §1, §2

[5] = molecular target: T2, Mouse IL2Rγ extracellular domain …; test: SPR Biacore 4000, anti-hFc-captured mAb, 25 C
Description: as §1, §2

100 nM Ag Bound [1] [RU] | Kd [1] [nM] | koff [1] [s⁻¹] | kon [1] [M⁻¹ s⁻¹] | t1/2 [1] [min] | 100 nM Ag Bound [2] [RU] | Kd [2] [nM] | koff [2] [s⁻¹] | kon [2] [M⁻¹ s⁻¹] | t1/2 [2] [min] | 100 nM Ag Bound [3] [RU] | Kd [3] [nM] | koff [3] [s⁻¹] | kon [3] [M⁻¹ s⁻¹] | t1/2 [3] [min] | 100 nM Ag Bound [4] [RU] | Kd [4] [nM] | koff [4] [s⁻¹] | kon [4] [M⁻¹ s⁻¹] | 100 nM Ag Bound [5] [RU] | Binder | other results
16 | 51.6 | 0.00753 | 146000 | 1.5 | 19 | 55.9 | 0.0108 | 193000 | 1.1 | 31 | 6.71 | 0.00216 | 322000 | 5 | 39 | 21.7 | 0.00153 | 70400 | 51 | H4H12899P (antibody, human IgG4 S228P, kappa, V domains shown, fully human anti-IL2Rgamma mAb, human IgG4 Fc) VH: QVQLVESGGDLVKPGGSLRLSCATSGFTFSDFYMTWIRQAPGKGLEWISYISNSGSIVKYADSVKGRFTISRDNAKNSLYLQMNSLRAEDTAIYYCARFYGDRWGQGTLVTVSS VL: DIQLTQSPSFLSASVGDRVTITCWASQGISTFLAWYQQKPGKAPKLLIYAASTLQSGVPSRFSGSGSGTDFTLTISSLQPEDFATYHCQQLNNYPWTFGQGTKVEIKR | t1/2 [4]: 8 min; Kd [5]: 18.4 nM; koff [5]: 0.00167 s⁻¹; kon [5]: 90600 M⁻¹ s⁻¹; t1/2 [5]: 7 min
27 | 8.7 | 0.00363 | 417000 | 3.2 | 32 | 6.11 | 0.00317 | 519000 | 4 | 38 | 3.18 | 0.00154 | 483000 | 8 | 57 | 6.02 | 0.000619 | 103000 | 76 | H4H12900P (antibody, human IgG4 S228P, kappa, V domains shown, fully human anti-IL2Rgamma mAb, human IgG4 Fc) VH: QVQLVESGGGLVKPGGSLRLSCEASGFTFNDFYMTWIRQAPGKGLEWIAYISKSGDKMRYADSVKGRFSTSRDNAKNSLSLQMNSLRAEDTAVYYCARFYGDIWGQGTLVTVSS VL: DIQLTQSPSFLSASVGDRVTITCWASQDISSFLVWYQQKPGKAPNLLIYAASALQSGVPSRFSGSGSGTEFTLTISSLQPEDFASYYCEQLNNYPWTFGQGTKVEIKR | t1/2 [4]: 19 min; Kd [5]: 3.76 nM; koff [5]: 0.000467 s⁻¹; kon [5]: 124000 M⁻¹ s⁻¹; t1/2 [5]: 25 min
0 | – | – | – | – | 1 | – | – | – | – | 20 | 14 | 0.00131 | 93600 | 9 | 0 | – | – | – | 1 | H4H12890P (antibody, human IgG4 S228P, kappa, V domains shown, fully human anti-IL2Rgamma mAb, human IgG4 Fc) VH: EVQLVESGGGLVQPGGSLRLSCAASGFTFNNYAMHWVRQAPGKGLEYVSSISSSGGSTYYEDSVKGRFTISRDNSKNTLYLQMGSLRAEDMAVYYCARSFYGSGTYYDTFDMWGQGTMVTVSS VL: DIQMTQSPSSLSASIGDRVTITCRASQSISRYLNWYQQKPGKAPKLLIYAASSLQSGVPSRFSASGSGTDFTLTISSLQPEDFATYYCQQSYSTPFTFGQGTKLEIKR | binding result [4]: no binding (tested: 100 nM); binding result [5]: no binding (tested: 100 nM)
